Here are results for one substance from patent US6017763.

Test [1] deals with pig neutrophil Gβγ-activated PI3K A (p117/p101 heterodimer) (porcine).
The target of test [2] is pig neutrophil Gβγ-activated PI3K B (p120/p101 heterodimer) (porcine).
Test [3] concerns the target porcine 6×HIS-tagged p120, Sf9-derived (pAcHLT p120), uncleaved (porcine).
The target of test [4] is porcine twice-cut p120 (thrombin cleaved, lacking approximately 40 amino-terminal residues) (porcine).
Test [5] concerns the target Sf9-derived p101/p120 heterodimer ((EE)-p101 with 6×HIS-p120), formed in vivo by co-infection or reconstituted in vitro (porcine).

As for “Gβγ subunits (purified G protein βγ subunits)”, the PI3K (lipid kinase) activity in test [1] and in test [2] was greater than 100 × throughout. For the same substance, the PI3K activity of free p120 in test [3] is 1.7 fold. Further, the PI3K activity of thrombin cleaved p120 in test [4] amounted to 2.5 fold. The PI3K activity in test [5] is greater than 100 ×.
